Assay results reported in article PMC11077950.

Columns and labels:
TNfxB3 = test: SPR; settings: EMSA: PBS (137 mM NaCl, 2.7 mM KCl, 8 mM Na2HPO4, 2 mM KH2PO4), 2 uL glycerin in 20 uL, 80 ng DNA, 5-70 pmol protein, 25 C, 30 min, 30 uL/min …
[1] = biological target: T1, NfxB T39R T51R (Pseudomonas aeruginosa PAO1) (UniProt P32265); test: EMSA; settings: EMSA: PBS (137 mM NaCl, 2.7 mM KCl, 8 mM Na2HPO4, 2 mM KH2PO4), 2 uL glycerin in 20 uL, 80 ng DNA, 5-70 pmol protein, 25 C, 30 min, SPR: PBS, 30 uL/min …
T1 sequence: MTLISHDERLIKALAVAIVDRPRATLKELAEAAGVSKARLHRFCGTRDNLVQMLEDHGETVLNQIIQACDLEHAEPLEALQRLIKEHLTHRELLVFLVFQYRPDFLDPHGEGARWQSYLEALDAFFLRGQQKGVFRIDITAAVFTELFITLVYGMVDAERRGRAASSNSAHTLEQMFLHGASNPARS

Sequence | Kd (TNfxB3) [µM] | binding [1]
ATACTAGCTTTGTTCACACCAAAATCAAATGAGTCAATATTGACTTATTTGATTTTTGCGTGGATCATGCGCGGCTTCGAC (double strand) [SPR operator DNA with two inverted repeats, 81 bp] | 0.917 | –
CTCATCGGCAGCAGTTAAATCCATCGGTCACTCTTTATCTATCGCGGGCAGATGCGGGTATTTTGCCTAGAACACTCATTTTTCTCAAAGAGGATACTAGCTTTGTTCACACCAAAATCAAATGAGTCAATATTGACTTATTTGATTTTTGCGTGGATCATGCGCGGCTTCGACTACGTACTGGCTTCGTGCTTGGGTGAGATATGAACAAATTCCGCGAATGGATCAC (double strand) [tnfxB1-tmexC1 intergenic DNA (PtmexC1), EMSA] | – | binds more weakly
